In patent publication US20240270846A1 (published 2024):

Target: T1, CD3 epsilon homodimer protein (UniProt P07766 23-126)
T1 construct: also called CD3 (CD3 epsilon)
Assay: SPR Biacore T200, antibody over immobilised CD3e homodimer;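 also: CD3 epsilon homodimer amine-coupled on a CM4 chip, run at 25 °C in HBS-EP+, Z = bound amount of each single-residue H chain variant over that of the parent antibody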

T1 sequence (P07766 23-126): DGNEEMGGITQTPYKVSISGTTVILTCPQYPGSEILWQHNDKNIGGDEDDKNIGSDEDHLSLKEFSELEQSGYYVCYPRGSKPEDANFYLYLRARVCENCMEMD

Row | ratio of amounts bound (Z=Y/X vs CE115HA000) | Binder
1 | 0.21 | CE115HA000 H35F one-arm antibody (antibody, human IgG1, kappa, L234A L235A, N297A, name in Kabat numbering, one-arm antibody) heavy: QVQLVESGGGVVQPGRSLRLSCAASGFTFSNAWMFWVRQAPGKGLEWVAQIKAKSNNYATYYAESVKGRFTISRDDSKNSLYLQMNSLKTEDTAVYYCRYVHYGAYYGVDAWGQGTTVTVSSASTKGPSVFPLAPSSKSTSGGTAALGCLVKDYFPEPVTVSWNSGALTSGVHTFPAVLQSSGLYSLSSVVTVPSSSLGTQTYICNVNHKPSNTKVDKKVEPKSCDKTHTCPPCPAPEAAGGPSVFLFPPKPKDTLMISRTPEVTCVVVDVSHEDPEVKFNWYVDGVEVHNAKTKPREEQYASTYRVVSVLTVLHQDWLNGKEYKCKVSNKALPAPIEKTISKAKGQPREPQVYTLPPSRCELTKNQVSLSCAVKGFYPSDIAVEWESNGQPENNYKTTPPVLDSDGSFFLVSKLTVDKSRWQQGNVFSCSVMHEALHNHYTQKSLSLSPDYKDDDDK EPKSSDKTHTCPPCPAPELLGGPSVFLFPPKPKDTLMISRTPEVTCVVVDVSHEDPEVKFNWYVDGVEVHNAKTKPREEQYNSTYRVVSVLTVLHQDWLNGKEYKCKVSNKALPAPIEKTISKAKGQPREPQVCTLPPSRDELTKNQVSLWCLVKGFYPSDIAVEWESNGQPENNYKTTPPVLDSDGSFFLYSKLTVDKSRWQQGNVFSCSVMHEALHNRYTQKSLSLSP light: DIVMTQSPLSLPVTPGEPASISCRSSQSLVHSNRNTYLHWYQQKPGQAPRLLIYKVSNRFSGVPDRFSGSGSGTDFTLKISRVEAEDVGVYYCGQGTQVPYTFGQGTKLEIKRTVAAPSVFIFPPSDEQLKSGTASVVCLLNNFYPREAKVQWKVDNALQSGNSQESVTEQDSKDSTYSLSSTLTLSKADYEKHKVYACEVTHQGLSSPVTKSFNRGEC
2 | 0.11 | CE115HA000 H35L one-arm antibody (antibody, human IgG1, kappa, L234A L235A, N297A, name in Kabat numbering, one-arm antibody) heavy: QVQLVESGGGVVQPGRSLRLSCAASGFTFSNAWMLWVRQAPGKGLEWVAQIKAKSNNYATYYAESVKGRFTISRDDSKNSLYLQMNSLKTEDTAVYYCRYVHYGAYYGVDAWGQGTTVTVSSASTKGPSVFPLAPSSKSTSGGTAALGCLVKDYFPEPVTVSWNSGALTSGVHTFPAVLQSSGLYSLSSVVTVPSSSLGTQTYICNVNHKPSNTKVDKKVEPKSCDKTHTCPPCPAPEAAGGPSVFLFPPKPKDTLMISRTPEVTCVVVDVSHEDPEVKFNWYVDGVEVHNAKTKPREEQYASTYRVVSVLTVLHQDWLNGKEYKCKVSNKALPAPIEKTISKAKGQPREPQVYTLPPSRCELTKNQVSLSCAVKGFYPSDIAVEWESNGQPENNYKTTPPVLDSDGSFFLVSKLTVDKSRWQQGNVFSCSVMHEALHNHYTQKSLSLSPDYKDDDDK EPKSSDKTHTCPPCPAPELLGGPSVFLFPPKPKDTLMISRTPEVTCVVVDVSHEDPEVKFNWYVDGVEVHNAKTKPREEQYNSTYRVVSVLTVLHQDWLNGKEYKCKVSNKALPAPIEKTISKAKGQPREPQVCTLPPSRDELTKNQVSLWCLVKGFYPSDIAVEWESNGQPENNYKTTPPVLDSDGSFFLYSKLTVDKSRWQQGNVFSCSVMHEALHNRYTQKSLSLSP light: DIVMTQSPLSLPVTPGEPASISCRSSQSLVHSNRNTYLHWYQQKPGQAPRLLIYKVSNRFSGVPDRFSGSGSGTDFTLKISRVEAEDVGVYYCGQGTQVPYTFGQGTKLEIKRTVAAPSVFIFPPSDEQLKSGTASVVCLLNNFYPREAKVQWKVDNALQSGNSQESVTEQDSKDSTYSLSSTLTLSKADYEKHKVYACEVTHQGLSSPVTKSFNRGEC
3 | 0.15 | CE115HA000 H35K one-arm antibody (antibody, human IgG1, kappa, L234A L235A, N297A, name in Kabat numbering, one-arm antibody) heavy: QVQLVESGGGVVQPGRSLRLSCAASGFTFSNAWMKWVRQAPGKGLEWVAQIKAKSNNYATYYAESVKGRFTISRDDSKNSLYLQMNSLKTEDTAVYYCRYVHYGAYYGVDAWGQGTTVTVSSASTKGPSVFPLAPSSKSTSGGTAALGCLVKDYFPEPVTVSWNSGALTSGVHTFPAVLQSSGLYSLSSVVTVPSSSLGTQTYICNVNHKPSNTKVDKKVEPKSCDKTHTCPPCPAPEAAGGPSVFLFPPKPKDTLMISRTPEVTCVVVDVSHEDPEVKFNWYVDGVEVHNAKTKPREEQYASTYRVVSVLTVLHQDWLNGKEYKCKVSNKALPAPIEKTISKAKGQPREPQVYTLPPSRCELTKNQVSLSCAVKGFYPSDIAVEWESNGQPENNYKTTPPVLDSDGSFFLVSKLTVDKSRWQQGNVFSCSVMHEALHNHYTQKSLSLSPDYKDDDDK EPKSSDKTHTCPPCPAPELLGGPSVFLFPPKPKDTLMISRTPEVTCVVVDVSHEDPEVKFNWYVDGVEVHNAKTKPREEQYNSTYRVVSVLTVLHQDWLNGKEYKCKVSNKALPAPIEKTISKAKGQPREPQVCTLPPSRDELTKNQVSLWCLVKGFYPSDIAVEWESNGQPENNYKTTPPVLDSDGSFFLYSKLTVDKSRWQQGNVFSCSVMHEALHNRYTQKSLSLSP light: DIVMTQSPLSLPVTPGEPASISCRSSQSLVHSNRNTYLHWYQQKPGQAPRLLIYKVSNRFSGVPDRFSGSGSGTDFTLKISRVEAEDVGVYYCGQGTQVPYTFGQGTKLEIKRTVAAPSVFIFPPSDEQLKSGTASVVCLLNNFYPREAKVQWKVDNALQSGNSQESVTEQDSKDSTYSLSSTLTLSKADYEKHKVYACEVTHQGLSSPVTKSFNRGEC
4 | 0.29 | CE115HA000 H35M one-arm antibody (antibody, human IgG1, kappa, L234A L235A, N297A, name in Kabat numbering, one-arm antibody) heavy: QVQLVESGGGVVQPGRSLRLSCAASGFTFSNAWMMWVRQAPGKGLEWVAQIKAKSNNYATYYAESVKGRFTISRDDSKNSLYLQMNSLKTEDTAVYYCRYVHYGAYYGVDAWGQGTTVTVSSASTKGPSVFPLAPSSKSTSGGTAALGCLVKDYFPEPVTVSWNSGALTSGVHTFPAVLQSSGLYSLSSVVTVPSSSLGTQTYICNVNHKPSNTKVDKKVEPKSCDKTHTCPPCPAPEAAGGPSVFLFPPKPKDTLMISRTPEVTCVVVDVSHEDPEVKFNWYVDGVEVHNAKTKPREEQYASTYRVVSVLTVLHQDWLNGKEYKCKVSNKALPAPIEKTISKAKGQPREPQVYTLPPSRCELTKNQVSLSCAVKGFYPSDIAVEWESNGQPENNYKTTPPVLDSDGSFFLVSKLTVDKSRWQQGNVFSCSVMHEALHNHYTQKSLSLSPDYKDDDDK EPKSSDKTHTCPPCPAPELLGGPSVFLFPPKPKDTLMISRTPEVTCVVVDVSHEDPEVKFNWYVDGVEVHNAKTKPREEQYNSTYRVVSVLTVLHQDWLNGKEYKCKVSNKALPAPIEKTISKAKGQPREPQVCTLPPSRDELTKNQVSLWCLVKGFYPSDIAVEWESNGQPENNYKTTPPVLDSDGSFFLYSKLTVDKSRWQQGNVFSCSVMHEALHNRYTQKSLSLSP light: DIVMTQSPLSLPVTPGEPASISCRSSQSLVHSNRNTYLHWYQQKPGQAPRLLIYKVSNRFSGVPDRFSGSGSGTDFTLKISRVEAEDVGVYYCGQGTQVPYTFGQGTKLEIKRTVAAPSVFIFPPSDEQLKSGTASVVCLLNNFYPREAKVQWKVDNALQSGNSQESVTEQDSKDSTYSLSSTLTLSKADYEKHKVYACEVTHQGLSSPVTKSFNRGEC
5 | 0.12 | CE115HA000 H35I one-arm antibody (antibody, human IgG1, kappa, L234A L235A, N297A, name in Kabat numbering, one-arm antibody) heavy: QVQLVESGGGVVQPGRSLRLSCAASGFTFSNAWMIWVRQAPGKGLEWVAQIKAKSNNYATYYAESVKGRFTISRDDSKNSLYLQMNSLKTEDTAVYYCRYVHYGAYYGVDAWGQGTTVTVSSASTKGPSVFPLAPSSKSTSGGTAALGCLVKDYFPEPVTVSWNSGALTSGVHTFPAVLQSSGLYSLSSVVTVPSSSLGTQTYICNVNHKPSNTKVDKKVEPKSCDKTHTCPPCPAPEAAGGPSVFLFPPKPKDTLMISRTPEVTCVVVDVSHEDPEVKFNWYVDGVEVHNAKTKPREEQYASTYRVVSVLTVLHQDWLNGKEYKCKVSNKALPAPIEKTISKAKGQPREPQVYTLPPSRCELTKNQVSLSCAVKGFYPSDIAVEWESNGQPENNYKTTPPVLDSDGSFFLVSKLTVDKSRWQQGNVFSCSVMHEALHNHYTQKSLSLSPDYKDDDDK EPKSSDKTHTCPPCPAPELLGGPSVFLFPPKPKDTLMISRTPEVTCVVVDVSHEDPEVKFNWYVDGVEVHNAKTKPREEQYNSTYRVVSVLTVLHQDWLNGKEYKCKVSNKALPAPIEKTISKAKGQPREPQVCTLPPSRDELTKNQVSLWCLVKGFYPSDIAVEWESNGQPENNYKTTPPVLDSDGSFFLYSKLTVDKSRWQQGNVFSCSVMHEALHNRYTQKSLSLSP light: DIVMTQSPLSLPVTPGEPASISCRSSQSLVHSNRNTYLHWYQQKPGQAPRLLIYKVSNRFSGVPDRFSGSGSGTDFTLKISRVEAEDVGVYYCGQGTQVPYTFGQGTKLEIKRTVAAPSVFIFPPSDEQLKSGTASVVCLLNNFYPREAKVQWKVDNALQSGNSQESVTEQDSKDSTYSLSSTLTLSKADYEKHKVYACEVTHQGLSSPVTKSFNRGEC
6 | 0.22 | CE115HA000 H35G one-arm antibody (antibody, human IgG1, kappa, L234A L235A, N297A, name in Kabat numbering, one-arm antibody) heavy: QVQLVESGGGVVQPGRSLRLSCAASGFTFSNAWMGWVRQAPGKGLEWVAQIKAKSNNYATYYAESVKGRFTISRDDSKNSLYLQMNSLKTEDTAVYYCRYVHYGAYYGVDAWGQGTTVTVSSASTKGPSVFPLAPSSKSTSGGTAALGCLVKDYFPEPVTVSWNSGALTSGVHTFPAVLQSSGLYSLSSVVTVPSSSLGTQTYICNVNHKPSNTKVDKKVEPKSCDKTHTCPPCPAPEAAGGPSVFLFPPKPKDTLMISRTPEVTCVVVDVSHEDPEVKFNWYVDGVEVHNAKTKPREEQYASTYRVVSVLTVLHQDWLNGKEYKCKVSNKALPAPIEKTISKAKGQPREPQVYTLPPSRCELTKNQVSLSCAVKGFYPSDIAVEWESNGQPENNYKTTPPVLDSDGSFFLVSKLTVDKSRWQQGNVFSCSVMHEALHNHYTQKSLSLSPDYKDDDDK EPKSSDKTHTCPPCPAPELLGGPSVFLFPPKPKDTLMISRTPEVTCVVVDVSHEDPEVKFNWYVDGVEVHNAKTKPREEQYNSTYRVVSVLTVLHQDWLNGKEYKCKVSNKALPAPIEKTISKAKGQPREPQVCTLPPSRDELTKNQVSLWCLVKGFYPSDIAVEWESNGQPENNYKTTPPVLDSDGSFFLYSKLTVDKSRWQQGNVFSCSVMHEALHNRYTQKSLSLSP light: DIVMTQSPLSLPVTPGEPASISCRSSQSLVHSNRNTYLHWYQQKPGQAPRLLIYKVSNRFSGVPDRFSGSGSGTDFTLKISRVEAEDVGVYYCGQGTQVPYTFGQGTKLEIKRTVAAPSVFIFPPSDEQLKSGTASVVCLLNNFYPREAKVQWKVDNALQSGNSQESVTEQDSKDSTYSLSSTLTLSKADYEKHKVYACEVTHQGLSSPVTKSFNRGEC
